Tests used:
[1] = substrate: Nc1ncnc2c1ncn2[C@@H]1O[C@H](COP(=O)(O)OP(=O)(O)OP(=O)(O)O)[C@@H](O)[C@H]1O; assay: kinetic analysis of recombinant enzyme (substrate saturation); format: biochemical, P. falciparum; settings: ATP varied, pH 7.8
Description: (§1) A continuous spectrophotometric 96-well plate assay was established for CK and EK activity based on an assay described. […] The reaction was initiated by addition of enzyme or substrate, as appropriate, and the rate of reaction was monitored by following the decrease in absorbance at 341 nm for 10 min at room temperature using a Thermo Multiska spectrophotometer. Experiments were carried out to ensure that coupling enzymes were not rate-limiting under any of the conditions used and control experiments lacking substrates and/or enzyme were carried out to correct for any background rate.
(§2) One substrate was held constant at the concentration specified above while the second substrate was varied. Any ATPase activity was controlled for and subtracted from the rates (PfEK only). Curves were plotted and Km and Vmax values estimated using Grafit 5 (Erithacus Software Ltd).

[2] = substrate: NCCO; assay: as above; format: biochemical, P. falciparum; settings: Etn varied, ATP constant, pH 7.8
Description: as §1, §2

[3] = substrate: C[N+](C)(C)CCO; assay: purified protein, by the assay type; settings: other: PfCK, Cho varied, ATP constant; pH 7.8

Row | Protein | Km ([1]; other: PfCK) | Km ([2]; other: PfCK) | Vmax ([2]; other: PfCK) | kcat ([2]; other: PfCK) | kcat/Km ([2]; other: PfCK) | Km [3] | Vmax [3] | kcat [3] | kcat/Km [3] | Km ([1]; other: PfEK) | Km ([2]; other: PfEK) | Vmax ([2]; other: PfEK) | kcat ([2]; other: PfEK) | kcat/Km ([2]; other: PfEK)
1 | PfCK (Plasmodium falciparum 3D7) (protein, made in house) MESKICDPIGLDKNKFRKVEEENEENSKIVENGQMTYNDDLEMFTTIQLNQEIDIRKNPFPLHMINQKNDIPLCAQEFSKLTDPLYIKKICLEKVHDWSRCNEDDVCVNQILSGLTNQLFEVSIKEDTAIEYRITRRHVLFRIYGKDVDALYNPLSEFEVYKTMSKYRIAPLLLNTFDGGRIEEWLYGDPLSIDDLKNKSILVGIANVLGKFHTLSRKRHLPEHWDKTPCVFKMMDRWRLAVSNYKNLDKVTLDINKYIQESHKFLKFIKIYTQIENIANDIVFCHNDLQENNIMNTNKCLRLIDFEYSGYNFLSADIANFFIETTIDYSYNAYPFFIINKKNYISYESRILFVTTYLSKYLDDSTAASDQDIIDQFLEAIEVQALGLHLIWAFWSIIRGYQTKSYNEFDFFLYAKERLKMYDEQKQYLMSKNIIKDYDD | 130 ± 10 µM | 3300 ± 300 µM | 1.7 µmol/min/mg | 1.5 s⁻¹ | 450 M⁻¹ s⁻¹ | 210 ± 30 µM | 3.3 µmol/min/mg | 2.9 s⁻¹ | 13800 M⁻¹ s⁻¹ |  |  |  |  | 
2 | PfEK (Plasmodium falciparum 3D7) (protein) EYQLREIDESEKEITQQRKKNSVTTKNFDNLSNSNSQITEMTNEQGVIPLREKDLTINVGDNRNLKVEEFMTNFISNVFENKNALFLYCKYVLLFYGKELLNENNVESLNFEIIKGGITNILVKVEDNIHQNKYLIRLYGPKTSEIINREREKLISNILCDKNISKKIYVFFPNGRIEEFKDGYALSREDIKNKDFQKEIAENLRILHDIQLDDTIYKKLQALQNIQGNRSSFLWSTLWKYFNTLKEERQKKYSFNPKAYILKLIDFDMLESIITEIQELCCKKNSPVVLCHCDLLSSNIIKTEGSSISFIDFEYSCPMERAYDIANHFNEYAGFNCEWDLTPNRSEEYHFIKHYLKTDDEQLINQLIDEIQPFYVCSHIVWGLWALLQGLHSVIDFDFINYGMTRLTAAFSVKFRSKL |  |  |  |  |  |  |  |  |  | 70 ± 30 µM | 80 ± 20 µM | 0.03 µmol/min/mg | 0.025 s⁻¹ | 310 M⁻¹ s⁻¹

Reference: PMC5018819 (Scientific Reports, 2016)
